In IntAct's records for PubMed 19846556:

B1: Peroxisome proliferator-activated receptor gamma coactivator 1-alpha (Homo sapiens), Q9UBK2 (parent)
chain: MAWDMCNQDSESVWSDIECAALVGEDQPLCPDLPELDLSELDVNDLDTDSFLGGLKWCSDQSEIISNQYNNEPSNIFEKIDEENEANLLAVLTETLDSLPVDEDGLPSFDALTDGDVTTDNEASPSSMPDGTPPPQEAEEPSLLKKLLLAPANTQLSYNECSGLSTQNHANHNHRIRTNPAIVKTENSWSNKAKSICQQQKPQRRPCSELLKYLTTNDDPPHTKPTENRNSSRDKCTSKKKSHTQSQSQHLQAKPTTLSLPLTPESPNDPKGSPFENKTIERTLSVELSGTAGLTPPTTPPHKANQDNPFRASPKLKSSCKTVVPPPSKKPRYSESSGTQGNNSTKKGPEQSELYAQLSKSSVLTGGHEERKTKRPSLRLFGDHDYCQSINSKTEILINISQELQDSRQLENKDVSSDWQGQICSSTDSDQCYLRETLEASKQVSPCSTRKQLQDQEIRAELNKHFGHPSQAVFDDEADKTGELRDSDFSNEQFSKLPMFINSGLAMDGLFDDSEDESDKLSYPWDGTQSYSLFNVSPSCSSFNSPCRDSVSPPKSLFSQRPQRMRSRSRSFSRHRSCSRSPYSRSRSRSPGSRSSSRSCYYYESSHYRHRTHRNSPLYVRSRSRSPYSRRPRYDSYEEYQHERLKREEYRREYEKRESERAKQRERQRQKAIEERRVIYVGKIRPDTTRTELRDRFEVFGEIEECTVNLRDDGDSYGFITYRYTCDAFAALENGYTLRRSNETDFELYFCGRKQFFKSNYADLDSNSDDFDPASTKSKYDSLDFDSLLKEAQRSLRR
partner: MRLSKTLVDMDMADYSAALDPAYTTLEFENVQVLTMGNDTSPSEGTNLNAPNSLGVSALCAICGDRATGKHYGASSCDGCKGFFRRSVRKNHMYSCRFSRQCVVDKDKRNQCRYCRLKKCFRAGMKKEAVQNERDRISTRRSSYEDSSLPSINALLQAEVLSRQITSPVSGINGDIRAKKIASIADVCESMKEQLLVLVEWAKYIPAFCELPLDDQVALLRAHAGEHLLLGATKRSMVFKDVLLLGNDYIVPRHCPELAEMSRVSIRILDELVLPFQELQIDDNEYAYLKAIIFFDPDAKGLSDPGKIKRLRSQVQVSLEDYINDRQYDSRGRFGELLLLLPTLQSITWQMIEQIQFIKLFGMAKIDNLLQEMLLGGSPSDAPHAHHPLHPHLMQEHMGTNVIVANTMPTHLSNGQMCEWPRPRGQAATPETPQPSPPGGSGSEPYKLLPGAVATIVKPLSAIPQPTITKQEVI

Columns and labels:
[1] = variants of: B1; conditions: with hnf4a_human HNF4A
[2] = variants of: B1; conditions: with hnf4a_human HNF4A; remark: listed apart in the source

With V91A;L92A the “effect of a mutation on the interaction” value [1] was “decreasing interaction”.

In the case of Y213A;L214A, the “effect of a mutation on the interaction” value [2] is reported as “decreasing interaction”.

For L147A;L148A, the “effect of a mutation on the interaction” value [2] was “decreasing interaction”.

V91A;L92A;Y213A;L214A was tested, and the “effect of a mutation on the interaction” value [2] was “decreasing interaction” and the “effect of a mutation on the interaction” value [1] was “decreasing interaction”.

For L147A;L148A;Y213A;L214A, the “effect of a mutation on the interaction” value [2] was “disrupting interaction” and the “effect of a mutation on the interaction” value [1] was “disrupting interaction”.

In the case of V91A;L92A;L147A;L148A;Y213A;L214A, the “effect of a mutation on the interaction” value [2] is reported as “disrupting interaction” and the “effect of a mutation on the interaction” value [1] is reported as “disrupting interaction”.

With V91A;L92A;L147A;L148A the “effect of a mutation on the interaction” value [2] was “decreasing interaction” and the “effect of a mutation on the interaction” value [1] was “decreasing interaction”.
